Here are results for three molecules from article PMC4701444 (PLoS ONE, 2016).

Assay [1] addresses PfAMA1. Conditions: Room temp; ref [23]; read-out: SPR Kd; cited from earlier work. From the text: Table 2 Comparison of equilibrium dissociation constants (Kd) of complexes. | column: SPRKd (nM) / Room temp
Assay [2] deals with ΔDII-PfAMA1. The assay is described as follows: Isothermal Titration Calorimetry, ΔDII-PfAMA1. It counts as binding, Plasmodium falciparum. Conditions: 25°C; ΔDII-PfAMA1 10 μM, PfRON2D3-TRX 110 μM; 20 mM Hepes pH 7.5, 150 mM NaCl; average of two experiments with standard deviation; read-out: ITC Kd. On the procedure: (§1) Purified PfAMA1, ΔDII-PfAMA1, and PfRON2D3-TRX were dialyzed against ITC buffer (20 mM Hepes pH 7.5, 150 mM NaCl) at 4°C. All ITC experiments were carried out at 25°C on a MicroCal iTC200 instrument. The sample cell contained PfAMA1 or ΔDII-PfAMA1 (10 μM), and PfRON2D3-TRX (110 μM) was added in 17 injections of 2.2 μL each. […] Data were processed using Origin software (MicroCal) and the dissociation constants (Kd) were determined using a one binding site model.

For assay [3], the target named is T1, PfAMA1 (Plasmodium falciparum, UniProt Q7KQK5).
T1 construct: (residues 104–438); hexa-histidine (cleaved yes); made in house; host or cells: insect cells (modified pAcGP67B vector)
T1 sequence (Q7KQK5 104-438): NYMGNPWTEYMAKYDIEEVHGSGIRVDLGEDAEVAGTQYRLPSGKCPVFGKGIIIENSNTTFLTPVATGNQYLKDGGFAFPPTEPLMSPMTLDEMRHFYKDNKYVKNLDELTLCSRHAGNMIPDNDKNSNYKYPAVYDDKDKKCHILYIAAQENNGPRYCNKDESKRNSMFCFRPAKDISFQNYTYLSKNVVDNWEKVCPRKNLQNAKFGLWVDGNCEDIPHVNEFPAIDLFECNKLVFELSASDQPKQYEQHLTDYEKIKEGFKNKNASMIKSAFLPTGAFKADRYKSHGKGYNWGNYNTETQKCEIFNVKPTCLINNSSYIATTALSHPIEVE
Nature of the assay: Isothermal Titration Calorimetry, PfAMA1. It counts as binding. Conditions: ITC, 25°C; which AMA1 construct not stated. On the procedure: as §1

For assay [4], the target named is T2, F*PfRON2sp1 (39 aa) [2021-2059], fluorescein-labeled PfRON2sp1 peptide (Plasmodium falciparum, 5-FAM (5-carboxyfluorescein) on the N-terminus; disulfide cyclized at the two cysteine residues).
T2 construct: Rhoptry Neck Protein 2 (RON2) of Plasmodium falciparum, residues 2021-2059; also called labeled peptide; labeled probe; source: synthetic peptide, bought: Kinexus (purity ≥ 95%)
T2 peptide: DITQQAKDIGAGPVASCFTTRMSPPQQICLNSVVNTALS
Nature of the assay: fluorescence polarisation; anisotropy kinetics at 20°C; association: 10 nM labeled probe with 50, 100, 200 nM protein; dissociation: 10 nM preformed complex challenged with 2500 or 5000 nM unlabeled PfRON2sp1; global fit to a one-intermediate model; PBS pH 7.4, at least 0.1% BSA. Conditions: both partners purified.

The target in assay [5] is T2, F*PfRON2sp1 (39 aa) [2021-2059], …. The assay is described as follows: fluorescence polarisation; anisotropy kinetics at 25°C; association: 10 nM labeled probe with 50, 100, 200 nM protein; dissociation: 10 nM preformed complex challenged with 2500 or 5000 nM unlabeled PfRON2sp1; global fit to a one-intermediate model; PBS pH 7.4, at least 0.1% BSA. Conditions: both partners purified.

Assay [6] has the same target. The description is as above. Conditions: both partners purified.
Assay [7] has the same target. Described as above. Conditions: both partners purified.
Assay [8] shares this target. Nature of the assay: fluorescence polarisation; anisotropy kinetics at 30°C; association: 10 nM labeled probe with 50, 100, 200 nM protein; dissociation: 10 nM preformed complex challenged with 2500 or 5000 nM unlabeled PfRON2sp1; global fit to a one-intermediate model; PBS pH 7.4, at least 0.1% BSA. Conditions: both partners purified.

As for “PfRON2D3: thioredoxin fusion of PfRON2D3 (Asp2021 to Ser2059) produced in E. coli BL21 cells”, the Kd in assay [1] is 20.3 ± 6.3 nM; in assay [2] it was 92.6 ± 6.4 nM.
Turning to “TRX: thioredoxin, injected as a negative control in ITC”, the “binding of TRX negative control” value in assay [3] is given as “no detectable binding”.

B1: PfAMA1 (DI-DII of Plasmodium falciparum Apical Membrane Antigen 1, 3D7, residues 104-438) (domain or fragment)
chain: NYMGNPWTEYMAKYDIEEVHGSGIRVDLGEDAEVAGTQYRLPSGKCPVFGKGIIIENSNTTFLTPVATGNQYLKDGGFAFPPTEPLMSPMTLDEMRHFYKDNKYVKNLDELTLCSRHAGNMIPDNDKNSNYKYPAVYDDKDKKCHILYIAAQENNGPRYCNKDESKRNSMFCFRPAKDISFQNYTYLSKNVVDNWEKVCPRKNLQNAKFGLWVDGNCEDIPHVNEFPAIDLFECNKLVFELSASDQPKQYEQHLTDYEKIKEGFKNKNASMIKSAFLPTGAFKADRYKSHGKGYNWGNYNTETQKCEIFNVKPTCLINNSSYIATTALSHPIEVE
notes: codon-optimized synthetic gene; also called native PfAMA1; PfAMA1 DI-DII construct
In the case of B1, the figures for the “complex half-life (calculated from the one-intermediate model)” value in assay [4], in assay [5] and in assay [8] were 28.8 min, 16 min and 9.07 min, respectively. Besides, the figures for the “complex half-life (experimental)” value in assay [4], in assay [5] and in assay [8] were 27.3 min, 15 min and 9.23 min, respectively. The “dH (overall, summation of the transition states from the kinetic fit)” value in assay [6] is -11.6 kcal/mol. For the same molecule, the “dH of step 1 (formation of the intermediate)” value in assay [7] is -0.67 kcal/mol.
